B1: AT01 antibody (antibody, IgG1, V domains shown)
VH: QVQLQQPGAELVKPGASVNLSCKASGYTFTNNWLHWVKQRPGRGLEWIGDIYPSNGRTNYNEQFKTKATLTVDKSSSTAYMQLSSLTSEDSAVYFCARERGYFDYWGQGTALTVSS
VL: DIQMTQSPSSLSTSLGGKVTITCKASQDINKYIAWYQHKPGKGPRLLIHYTSTLQPGIPSRFSGSGSGRDYSFSISNLEPEDIATYYCLQYDYLLTFGAGTKLELK
notes: also called mouse anti-human TLR7 antibody (AT01)
B2: NB7 antibody (antibody, IgG1, V domains shown)
VH: DVQLQESGPGLVKPSQSLSLTCTVTGYSITSDYAWNWIRQFPGNKLEWMGHISYRGNTNYNPSLKSRISITRDTSKNQFFLQLNSVTTEDTATYYCASWNYYGYVDYAMDYWGQGTSVTVSS
VL: DIQMTQTPSSLSASLGDRVTISCRASQDISNYLNWYQQKPDGTVKLLIYYTSRLHSGVPSRFSGSGSGTDYSLTINNLEQEDIATYFCQQGDTFPTFGGGTKLEIK
notes: also called mouse anti-human TLR7 antibody (NB7)
B3: FAN2 antibody (antibody, IgG1, V domains shown)
VH: QVQLKESGPGLVAPSQSLSITCTVSGFSLTGYGVNWVRQPPGKGLEWLGMIWGDGSTDYNSALKSRLSIRKDNSKSQVFLKMNSLQTDDTARYYCARDKGYDGYYYAMDYWGQGTSVTVSS
VL: DIQMTQSPASLSASVGETVTITCRASENIYSYLAWYQQKQGKSPQLLVYDAKTLAEGVPSRFSGSGSGTQFSLKINSLQPEDFGSYYCQHHYGIPYTFGGGTKLEIK
notes: also called mouse anti-human TLR7 antibody (FAN2)

Biological target: T1, rat TLR7-Flag-His×6, expressed in Ba/F3 cells (rat, UniProt P58681 27-1050 (mouse entry))
T1 construct: cells permeabilised with 0.1% saponin; not shown: Flag-His×6 tag added to the C-terminus
T1 chain: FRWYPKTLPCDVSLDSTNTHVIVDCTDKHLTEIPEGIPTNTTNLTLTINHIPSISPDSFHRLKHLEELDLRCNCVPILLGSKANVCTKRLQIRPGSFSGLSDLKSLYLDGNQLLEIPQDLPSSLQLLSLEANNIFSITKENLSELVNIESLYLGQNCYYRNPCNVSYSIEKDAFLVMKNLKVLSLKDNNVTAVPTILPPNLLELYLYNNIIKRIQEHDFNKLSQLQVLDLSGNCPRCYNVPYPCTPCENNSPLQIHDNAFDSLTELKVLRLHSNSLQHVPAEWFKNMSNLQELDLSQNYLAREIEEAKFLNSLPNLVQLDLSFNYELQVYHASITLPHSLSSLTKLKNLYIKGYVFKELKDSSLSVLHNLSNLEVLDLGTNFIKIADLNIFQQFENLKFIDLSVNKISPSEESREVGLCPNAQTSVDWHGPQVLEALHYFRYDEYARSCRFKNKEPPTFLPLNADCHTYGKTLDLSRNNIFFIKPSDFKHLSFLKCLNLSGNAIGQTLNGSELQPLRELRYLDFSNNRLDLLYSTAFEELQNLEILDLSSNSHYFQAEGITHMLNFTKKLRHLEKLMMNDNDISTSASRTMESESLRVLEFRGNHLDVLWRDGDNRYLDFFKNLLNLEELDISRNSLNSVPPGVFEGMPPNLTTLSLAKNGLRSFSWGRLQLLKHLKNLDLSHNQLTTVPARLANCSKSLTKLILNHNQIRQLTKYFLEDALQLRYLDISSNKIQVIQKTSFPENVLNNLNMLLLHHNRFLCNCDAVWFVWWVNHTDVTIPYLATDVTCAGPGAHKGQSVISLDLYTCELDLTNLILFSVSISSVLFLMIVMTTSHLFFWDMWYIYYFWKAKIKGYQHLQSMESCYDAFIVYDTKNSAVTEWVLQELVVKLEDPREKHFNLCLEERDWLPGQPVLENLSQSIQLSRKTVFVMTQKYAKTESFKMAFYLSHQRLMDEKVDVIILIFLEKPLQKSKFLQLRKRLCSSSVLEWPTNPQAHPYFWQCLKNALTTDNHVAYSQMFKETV
Experiment: flow cytometry (MFI) on saponin-permeabilised Ba/F3 cells expressing rat TLR7-Flag-His×6
From the text: (§1) The Ba/F3 cell line expressing human TLR7-Flag-His×6/human Unc93B1-HA×2 established above in 1)-1-1, the Ba/F3 cell line expressing mouse TLR7-Flag-His×6 established above in 2)-1-1, the Ba/F3 cell line expressing rat TLR7-Flag-His×6×2 established above in 2)-1-2, and the Ba/F3 cell line expressing monkey TLR7-Flag-His×6 established above in 2)-1-3 were subjected to membrane permeation with 0.1% Saponin and stained using AT01 antibody, NB7 antibody, and FAN2 antibody, and a secondary antibody, Goat anti-mouse IgG (H+L)-PE (eBioscience). The binding selectivity of each antibody was evaluated by comparing the average fluorescence intensity (MFI) based on flow cytometry analysis.

| Binder | binding result |
| --- | --- |
| B1 | no binding |
| B2 | no binding |
| B3 | no binding |

Biological target: T2, monkey TLR7-Flag-His×6, expressed in Ba/F3 cells (monkey, UniProt Q9NYK1 27-1049 (human entry))
T2 construct: cells permeabilised with 0.1% saponin; not shown: Flag-His×6 tag added to the C-terminus
T2 chain: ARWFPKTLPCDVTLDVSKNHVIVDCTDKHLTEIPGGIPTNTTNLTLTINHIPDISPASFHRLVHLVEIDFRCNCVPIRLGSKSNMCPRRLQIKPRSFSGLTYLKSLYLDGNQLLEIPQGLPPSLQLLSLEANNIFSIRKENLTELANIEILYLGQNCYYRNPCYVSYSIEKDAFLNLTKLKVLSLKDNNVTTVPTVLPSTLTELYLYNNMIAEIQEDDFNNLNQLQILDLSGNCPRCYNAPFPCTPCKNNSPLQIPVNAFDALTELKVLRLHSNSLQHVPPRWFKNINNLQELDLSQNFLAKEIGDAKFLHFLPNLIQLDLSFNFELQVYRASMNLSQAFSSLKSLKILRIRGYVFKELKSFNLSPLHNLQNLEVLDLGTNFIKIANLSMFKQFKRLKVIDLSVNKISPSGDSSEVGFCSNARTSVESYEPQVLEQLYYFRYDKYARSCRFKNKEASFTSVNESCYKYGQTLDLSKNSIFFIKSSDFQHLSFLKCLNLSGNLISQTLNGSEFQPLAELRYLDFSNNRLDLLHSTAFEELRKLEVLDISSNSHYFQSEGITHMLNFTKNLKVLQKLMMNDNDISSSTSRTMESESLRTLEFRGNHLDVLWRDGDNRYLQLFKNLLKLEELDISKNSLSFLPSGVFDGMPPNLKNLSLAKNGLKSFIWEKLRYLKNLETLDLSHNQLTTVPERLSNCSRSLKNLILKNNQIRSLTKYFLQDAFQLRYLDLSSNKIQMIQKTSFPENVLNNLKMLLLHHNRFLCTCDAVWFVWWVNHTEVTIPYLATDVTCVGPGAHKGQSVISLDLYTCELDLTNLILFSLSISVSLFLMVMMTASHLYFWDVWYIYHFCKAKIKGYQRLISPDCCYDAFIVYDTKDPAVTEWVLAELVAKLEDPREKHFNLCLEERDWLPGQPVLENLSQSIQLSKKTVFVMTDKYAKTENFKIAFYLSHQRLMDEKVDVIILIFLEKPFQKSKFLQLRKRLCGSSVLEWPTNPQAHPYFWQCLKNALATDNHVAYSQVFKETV
Experiment: flow cytometry (MFI) on saponin-permeabilised Ba/F3 cells expressing monkey TLR7-Flag-His×6
From the text: as §1

| Binder | binding result |
| --- | --- |
| B1 | binds |
| B2 | binds |
| B3 | binds |
